Test: yeast display, Sf9 membrane polyspecificity reagent, FACS + sequencing; frameworks hold sequencing errors
In short: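 Synthetic nanobody libraries on Saccharomyces cerevisiae BJ5465 were galactose-induced for 36–48 hours, stained 1 hour at 4 °C with 10% biotinylated, detergent-solubilized Sf9 membrane reagent and enriched on streptavidin microbeads. FACS then separated cells into low and high (top ~1%) gates by anti-HA (expression) and streptavidin (reagent binding) fluorescence. Genes were colony-PCR amplified, MiSeq 2 × 250 sequenced and CDR-length filtered. A clone's polyreactivity label is that of its gate of origin.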

Row | Sequence | polyreactivity (PSR sort gate)
1 | QFQLVESGGGLVQAGGSLRLSCAASGRTFRYYAMGGYIQAPGKERELVGAITTGSSTYYADSVKGRFTISRDNAKNTVYLQMNSLKTEDTAVYYCHVFQGTRYGYWGQGTKVTVSS | low polyreactivity
2 | QFQLVESGGGLVQAGGSLRLSCAASGRTFRYYTMGWYRQAPGKEREFVAVITVNGGSTYYADSVKGRFTISRDNAKNTVYLQMNSLKPEDTAVYYCAKSYGSRHRYWPLYYWGQGTQVTVSS | high polyreactivity
3 | QFQLVESGGGLVQAGGSLRLSCAASGRTFVPYVMGWYRQAPGKERELVASITSGGSTYYADSVKGRFTISRDNAKNTVYLQMNSLNPEDTAVYYCATRQSAERWGYYYWGQGTQVTVSS | low polyreactivity
4 | QFQLVESGGGLVQAGGSLRLSCAASGRTFYVNAMGWYRPSPGKERELVAGISFSDGSTYYADSVKGRFTISRDNAKNTVYLQMNSLKPEDTAVYYCATVGAFDIYYGYGYWGQGTQVTVSS | low polyreactivity
5 | QFQLVESGGGLVQAGGSLRLSCAASGRTFYYYVMGWYRQAPGKERELVAAITIRGGSTYYADSVKGRFTISRDNAKNTVYLQMNSLKPEDTAVYYCNARGGSSTYGNYYWGQGTQVTVSS | low polyreactivity
6 | QFQLVESGGGLVQAGGSLRLSCAASGSIFDAYAMGWYRQAPGKERELVPAITYSGGSTYYADSVKGRFTISRDNAKNTVYLQMNSLKPEDTAVYYCNTDSRVRTWFRAFTFDSWGQGTQVTVSS | low polyreactivity
7 | QFQLVESGGGLVQAGGSLRLSCAASGSIFDRNAMGWYRQAPGKERELVAAITSGGSTYYADSVKGRFTISRDNAKNTVYLQMNSLKPEDNAVYYCNADTDPPVPLYYWGQGTQVTVSS | low polyreactivity
8 | QFQLVESGGGLVQAGGSLRLSCAASGSIFFYYAMGWYRQAPGKERELVAAITFTGGSTYYADSVKGRFTISRDNAKNTVYLQMNSLKPEDTAVYYCADYWYYGDEYVYWGQGTQVTVSS | high polyreactivity
9 | QFQLVESGGGLVQAGGSLRLSCAASGSIFIYYAMGWYRQAPGKEREFVAAITRSGGSTFYADSVKGRFTISRDNAKNTVYLQMNSLKPEDTAVYYCATSYEGYYSIIGNKYDYWGQGTQVTVSS | high polyreactivity
10 | QFQLVESGGGLVQAGGSLRLSCAASGSIFLWYAMGWYRQAPGKERELVAVITSSGGTTYYADSVKGRFTISRDNAKNTVYLQMNCMKPEDNAVYYSAADFYRHPPGSLTKLYYYWGQGTQVTVSS | low polyreactivity
11 | QFQLVESGGGLVQAGGSLRLSCAASGSIFSVYAMGWYRQAPGKERELVAAITNRGGSTYYADSVKGRFTISRDNAKNTVYLQMNSLKPEDTAVYYCARGPVSYGGLYDYWGQGTQVIVSS | low polyreactivity
12 | QFQLVESGGGLVQAGGSLRLSCAASGSIFSYNAMGWYIQAPGKERELVASITSGGRTYYADSVKGRFTISRDNAKNTVYLQMYSLKPEDTAVYYCAAYQTGLHGFYSWGQGTQVTVSS | high polyreactivity
13 | QFQLVESGGGLVQAGGSLRLSCAASGSIFVLYAMGWYRQAPGKERELVAAITSAGSTYYADSVKGRFTISRDNAKNTVYLQMNSLKPEDTAVYYCAAGFYGYARHTWYNDWGQGTQVTVSS | high polyreactivity
14 | QFQLVESGGGLVQAGGSLRLSCAASGSIFYYNAMGWYRQAPGKEPELVAAINSGGTTYYADSVKGRFTISRDNAKNTVYVLMNSLKPEDTAVYYCAARTTRRSRYKYDYWGQGTQVSVSS | high polyreactivity
15 | QFQLVESGGGLVQAGGSLRLSCAASGSIIGPYAMGWYRQAPVKERELVAVISSGDSKNYADSVKGRFTISRDNAKNTVYLQMNSLKQEDNEVSYCRCKYDVAHHFWVYRYDYWGHGTQVTVSS | low polyreactivity
16 | QFQLVESGGGLVQAGGSLRLSCAASGSTFIYYAMGWYRQAPGKDRELVAAISGCGASTYYADSVKGGFTISRDNAKNTVYLQMNSLKPEDTAVYYCHFYRWRGYDYWGQGTQVTVSS | high polyreactivity
17 | QFQLVESGGGLVQAGGSLRLSCAASGSTFKYSAMGWYRQAPGKERELVAIIRSGGRTNYADSVKGRFTISRDNAKNTVYLQMNSLKPEDTAVYYCNARYGRYYGAYEYWGQGTQVTVSS | high polyreactivity
18 | QFQLVESGGGLVQAGGSLRLSCAASGSTFPLYAMGWYRPAPGKERELVAAITSGGGNTYYADSVKGRFTISRDNAKNTVYLQMNSLKPEDTAVYSCAAVGGYKSYYSYEYDYWGQGTQVTVSS | low polyreactivity
19 | QFQLVESGGGLVQAGGSLRLSCAASGSTFTNYAMGWYRQAPGKEREFVAAITFRGGRTYYADSVKGRFTISRHNAKNTVYLQLNSLKPEDTAVYYCNKRTSPKRFDYWGQGTQVTVSS | high polyreactivity
20 | QFQLVESGGGLVQAGGSLRLSCAASGTFGSYAMGWYRHAPGKERELVASISGTGGDTYYADSVKGRFTISRDNAKNTVYLQMNSLKPEDTAVYYCAARWSRYWYLGSWLYDYWGQGSQVTVSS | high polyreactivity
21 | QFQLVESGGGLVQAGGSLRLSCADSGFIFFSNARPWYRHAPGKDRELVAVIDRATSTYYADSVKGRFTISRDNAKYTVYLQMNSLKPEDTAVYYCNADGEEVYDCNYFLSFKGDYWGQGTQVTVSS | low polyreactivity
22 | QFQLVESGGGLVQAGGTLRLSCAPSGFTFTLNPLGWYRQAPGKERQLVATIDWSGTSTYYADSVKGRFRISRDKAKNTFYLQMNCMKPVDTAVYYCARVYQGYPGFYDGEYWGQGNQVTVSS | low polyreactivity

Row | Sequence | polyreactivity (PSR sort gate)
23 | QFQLVESGGGLVQARGSLRLSCAASGITFPVYAMGWYRQAPGKEREFVASIRFSTGRTYYADSVKGRFTISRDNAKNTVYLQINSLKPEDTAVYYCRGSTQSPYNSWGQGTQVTVSS | high polyreactivity
24 | QFQLVESGGGLVQPGGSLRLSCAASGGIFKRYAIGWYRQAPGKERELVAGISRRSGRTYYADSVKGRFTISRDNAKNTVYLQMNSLKPEDTAVFYCAARGIGGYDYWGHGTQVTVSS | high polyreactivity
25 | QFQLVESGGGLVQSGGSLRLSCAPTGLIFRPYAMGCYRQAPGKERELVAGINSGGNTDYADSVKGRFTISRDNAKNTVYLQMNSLKPEDTAVYYCNREYQVTIYDYCGQGTQVTVSS | low polyreactivity
26 | QFQLVESVGGLVQAGGSLRLSCAASGFTFPSYAMGWYRQAPGKERELVAAISYRGGRTYYADSVKWRFTISRDNAKNTVYLQMNSLKPEDTAVYYCNALFATVPPWGFDYWGQGTQVTVSS | high polyreactivity
27 | QFQLVESVGGLVQAGGSLRLSCAASGLNFSNYAMGWYRQAPGKERELVAVSSSRVSRTYYADSVKGRFTISRDNAKNTVYLQMISLKPEDTAVYYCAARDRTEFYYWGQGTQVTVSS | high polyreactivity
28 | QFQLVESWGGLVPPGGILRLSCAASRSTFRYYPIGRYRQAPGHERELVAVISSSGSRTNYADSVKGRFTISRDTAKNTVYLQLNSLKPEDSAVYYCGAVSSYRYYADYYWGQGTQVTVSS | high polyreactivity
29 | QFQLVETVGGLVQAGGSLRLSCAASGSIFPGYAMGWYRQAPGKERELVATITWSGGSTYYADSVKGRFTISRDNAKNTVYLQMYSLIPEDTAVYYFNADSNWYYQWNYYGLYDYWGKGTQVTVSS | low polyreactivity
30 | QFQRVESGGGLVQAGGSLRLSCAASGRILSYKVMGWYRQAPGKEREFVASIRRTGVRTYYADSVKGRFTISRDNAKNTVYLQINSLKPEDTGVYYCNAANFHFWDYYYWGQGTQVTVSS | low polyreactivity
31 | QGHLRESGGGLVQAGGSLRLTCAASGSNLWQYAMGWYRQATGKERELVAAITYSGGSTHYADSVKGRFTISRDNAKNTVYLQLNSLKPEDTAVYYCAAGSWYRYAALRYDHWGQGTQVTVST | low polyreactivity
32 | QGHLVESGGGLVQAGGSLRLSCAASGITLTRYAMGWYRQAPWKERELVAAISTGGGSTYYADSVKGRFTFSRDNAKNTVYLQMNSLKPEDTAVYYCAARIRFARGYPITRTYDYWGQGTQVTVSS | high polyreactivity
33 | QGHLVESGGRLVQAGGSLRLSCAASGRIFPTYTMGWYRQAPWKERELVAAIRRGGGRTYYADSVKGRFTISRDNAKKTVYLQMNSLKPEDTAVYYCAAPFYRQSLIEYDYWGQGTQVTVSS | high polyreactivity
34 | QGQHVESGGGLVQAGGRLRLSCAASGSTFGDNAMGWSRQAPGKERELVAAISSGSGGSTYYADSVKGRFTISRDNAKNTVYLQMNSLKPEDTAVYYCADVGPYGYYYGHYGYWGQGTQVTVSS | low polyreactivity
35 | QGQHVESGGGLVQAGGSLRLICAASGRIIVHYVMGWYRQAPRKERELVAAISRSGGRTYYADSVKGRFTISRDNAKNTVYLQMNSLKPEDTAVYYCATDASTDKYDYWGQGTQVTVSS | high polyreactivity
36 | QGQHVETGGGLVQAGGRLRLSCAASGSTLRDYVMGWSRQAPGKERELVAAITSRVDDTYYADSVKGRFTISRDNAKNTVYLQMNSLKPEDTAVYYCAADSSVTLRIGGYYWFYAFDYWGQGTQVTVSS | low polyreactivity
37 | QGQLEESGGGLVQAGGSLRLSCAASGITFNDYTMGWYRQAPGKEMELVAVITKTGSRTYYADSVKGRFTISRDNAKNTVYLQMNSLKPEDTAVYYCNALYYIHYYQGYGYWGQGTQVTVSS | high polyreactivity
38 | QGQLEESGGGLVQAGGSLRLSCAASGNTFRSYAMGSYRQAPGKERELVAAISGRGGSTYYADSVKGRFTISRDNAKYTVFVQLNSLKPDDTAVYYCAAESRRVNYANDDWGQGTQVTVSS | high polyreactivity
39 | QGQLGESGGGLVQAGGSLRLSCAASGGTFYYYAMGWYRHAPGKEREFVAAITWTGGRTYYADSVKGRFTISRDNAKNTVYLQMNSLKPEDSAVYYCAASDRYGGRDYWGQGTQVTVSS | high polyreactivity
40 | QGQLLESAGGLLQAGGSLRLSSAASGFNFQQYVMGWYRQARGNERELVASISRRGSRTYYADSVKGGFTISRDNAKNTVYLQMNSLKPEDTAVYYCAAPPSTSEGPYGYWGQGTQVSVSS | high polyreactivity
41 | QGQLQESGGGLVKAGGSLRLSCPASGNISNHKDMGWYRQAPGKESEFVAGITAGGITNYADSVTGRFTICRDNAKNTVDLVMNSLKPEDTAVYYSAAYPDYAKSYGYWGQGTQATVSS | low polyreactivity
42 | QGQLVESAGGLVQAGGSLRLSCGASGRSFYSYTMGWYRQAPVKERELVAAITRADRTHYADSVKGRFTISRDYATKHVDCERNSQKPEDTAVYYAATRQVYSVRYYYRGQGTQVTVSS | high polyreactivity
43 | QGQLVESGGGLGQAGGSLRLSCGASGRTFDSYAMGWYRPAPGKEREFVAAISYSGTSTYYAVSVTGRFTISRDKAKNTVYLQMNSLIPEDTAVYYCAKEYTFRQWGQGTQVTVSS | low polyreactivity

Reference: the nanobody polyreactivity screen of Harvey et al. (2022)
